# B1: GNB2 (protein, UniProt P62879 2-340, looked up)
# Guanine nucleotide-binding …: SELEQLRQEAEQLRNQIRDARKACGDSTLTQITAGLDPVGRIQMRTRRTLRGHLAKIYAMHWGTDSRLLVSASQDGKLIIWDSYTTNKVHAIPLRSSWVMTCAYAPSGNFVACGGLDNICSIYSLKTREGNVRVSRELPGHTGYLSCCRFLDDNQIITSSGDTTCALWDIETGQQTVGFAGHSGDVMSLSLAPDGRTFVSGACDASIKLWDVRDSMCRQTFIGHESDINAVAFFPNGYAFTTGSDDATCRLFDLRADQELLMYSHDNIICGITSVAFSRSGRLLLAGYDDFNCNIWDAMKGDRAGVLAGHDNRVSCLGVTDDGMAVATGSWDSFLKIWN
# B2: FES (protein, UniProt P07332 1-822, looked up)
# Tyrosine-protein kinase …: MGFSSELCSPQGHGVLQQMQEAELRLLEGMRKWMAQRVKSDREYAGLLHHMSLQDSGGQSRAISPDSPISQSWAEITSQTEGLSRLLRQHAEDLNSGPLSKLSLLIRERQQLRKTYSEQWQQLQQELTKTHSQDIEKLKSQYRALARDSAQAKRKYQEASKDKDRDKAKDKYVRSLWKLFAHHNRYVLGVRAAQLHHQHHHQLLLPGLLRSLQDLHEEMACILKEILQEYLEISSLVQDEVVAIHREMAAAAARIQPEAEYQGFLRQYGSAPDVPPCVTFDESLLEEGEPLEPGELQLNELTVESVQHTLTSVTDELAVATEMVFRRQEMVTQLQQELRNEEENTHPRERVQLLGKRQVLQEALQGLQVALCSQAKLQAQQELLQTKLEHLGPGEPPPVLLLQDDRHSTSSSEQEREGGRTPTLEILKSHISGIFRPKFSLPPPLQLIPEVQKPLHEQLWYHGAIPRAEVAELLVHSGDFLVRESQGKQEYVLSVLWDGLPRHFIIQSLDNLYRLEGEGFPSIPLLIDHLLSTQQPLTKKSGVVLHRAVPKDKWVLNHEDLVLGEQIGRGNFGEVFSGRLRADNTLVAVKSCRETLPPDLKAKFLQEARILKQYSHPNIVRLIGVCTQKQPIYIVMELVQGGDFLTFLRTEGARLRVKTLLQMVGDAAAGMEYLESKCCIHRDLAARNCLVTEKNVLKISDFGMSREEADGVYAASGGLRQVPVKWTAPEALNYGRYSSESDVWSFGILLWETFSLGASPYPNLSNQQTREFVEKGGRLPCPELCPDAVFRLMEQCWAYEPGQRPSFSTIYQELQSIRKRHR
# B3: FBLN1 (protein, UniProt P23142 30-703, looked up)
# Fibulin-1: DVLLEACCADGHRMATHQKDCSLPYATESKECRMVQEQCCHSQLEELHCATGISLANEQDRCATPHGDNASLEATFVKRCCHCCLLGRAAQAQGQSCEYSLMVGYQCGQVFQACCVKSQETGDLDVGGLQETDKIIEVEEEQEDPYLNDRCRGGGPCKQQCRDTGDEVVCSCFVGYQLLSDGVSCEDVNECITGSHSCRLGESCINTVGSFRCQRDSSCGTGYELTEDNSCKDIDECESGIHNCLPDFICQNTLGSFRCRPKLQCKSGFIQDALGNCIDINECLSISAPCPIGHTCINTEGSYTCQKNVPNCGRGYHLNEEGTRCVDVDECAPPAEPCGKGHRCVNSPGSFRCECKTGYYFDGISRMCVDVNECQRYPGRLCGHKCENTLGSYLCSCSVGFRLSVDGRSCEDINECSSSPCSQECANVYGSYQCYCRRGYQLSDVDGVTCEDIDECALPTGGHICSYRCINIPGSFQCSCPSSGYRLAPNGRNCQDIDECVTGIHNCSINETCFNIQGGFRCLAFECPENYRRSAATLQQEKTDTVRCIKSCRPNDVTCVFDPVHTISHTVISLPTFREFTRPEEIIFLRAITPPHPASQANIIFDITEGNLRDSFDIIKRYMDGMTVGVVRQVRPIVGPFHAVLKLEMNYVVGGVVSHRNVVNVHIFVSEYWF
# B4: FRMPD4 (protein, UniProt Q14CM0 1-1322, looked up)
# FERM and PDZ …: MDVFSFVKIAKLSSHRTKSSGWPPPSGTWGLSQVPPYGWEMTANRDGRDYFINHMTQAIPFDDPRLESCQIIPPAPRKVEMRRDPVLGFGFVAGSEKPVVVRSVTPGGPSEGKLIPGDQIVMINDEPVSAAPRERVIDLVRSCKESILLTVIQPYPSPKSAFISAAKKARLKSNPVKVRFSEEVIINGQVSETVKDNSLLFMPNVLKVYLENGQTKSFRFDCSTSIKDVILTLQEKLSIKGIEHFSLMLEQRTEGAGTKLLLLHEQETLTQVTQRPSSHKMRCLFRISFVPKDPIDLLRRDPVAFEYLYVQSCNDVVQERFGPELKYDIALRLAALQMYIATVTTKQTQKISLKYIEKEWGLETFLPSAVLQSMKEKNIKKALSHLVKANQNLVPPGKKLSALQAKVHYLKFLSDLRLYGGRVFKATLVQAEKRSEVTLLVGPRYGISHVINTKTNLVALLADFSHVNRIEMFSEEESLVRVELHVLDVKPITLLMESSDAMNLACLTAGYYRLLVDSRRSIFNMANKKNTATQETGPENKGKHNLLGPDWNCIPQMTTFIGEGEQEAQITYIDSKQKTVEITDSTMCPKEHRHLYIDNAYSSDGLNQQLSQPGEAPCEADYRSLAQRSLLTLSGPETLKKAQESPRGAKVSFIFGDFALDDGISPPTLGYETLLDEGPEMLEKQRNLYIGSANDMKGLDLTPEAEGIQFVENSVYANIGDVKSFQAAEGIEEPLLHDICYAENTDDAEDEDEVSCEEDLVVGEMNQPAILNLSGSSDDIIDLTSLPPPEGDDNEDDFLLRSLNMAIAAPPPGFRDSSDEEDSQSQAASFPEDKEKGSSLQNDEIPVSLIDAVPTSAEGKCEKGLDNAVVSTLGALEALSVSEEQQTSDNSGVAILRAYSPESSSDSGNETNSSEMTESSELATAQKQSENLSRMFLATHEGYHPLAEEQTEFPASKTPAGGLPPKSSHALAARPATDLPPKVVPSKQLLHSDHMEMEPETMETKSVTDYFSKLHMGSVAYSCTSKRKSKLADGEGKAPPNGNTTGKKQQGTKTAEMEEEASGKFGTVSSRDSQHLSTFNLERTAFRKDSQRWYVATEGGMAEKSGLEAATGKTFPRASGLGAREAEGKEEGAPDGETSDGSGLGQGDRFLTDVTCASSAKDLDNPEDADSSTCDHPSKLPEADESVARLCDYHLAKRMSSLQSEGHFSLQSSQGSSVDAGCGTGSSGSACATPVESPLCPSLGKHLIPDASGKGVNYIPSEERAPGLPNHGATFKELHPQTEGMCPRMTVPALHTAINTEPLFGTLRDGCHRLPKIKETTV
# B5: HOMER3 (protein, UniProt Q9NSC5 1-361, looked up)
# Homer protein homolog 3: MSTAREQPIFSTRAHVFQIDPATKRNWIPAGKHALTVSYFYDATRNVYRIISIGGAKAIINSTVTPNMTFTKTSQKFGQWADSRANTVYGLGFASEQHLTQFAEKFQEVKEAARLAREKSQDGGELTSPALGLASHQVPPSPLVSANGPGEEKLFRSQSADAPGPTERERLKKMLSEGSVGEVQWEAEFFALQDSNNKLAGALREANAAAAQWRQQLEAQRAEAERLRQRVAELEAQAASEVTPTGEKEGLGQGQSLEQLEALVQTKDQEIQTLKSQTGGPREALEAAEREETQQKVQDLETRNAELEHQLRAMERSLEEARAERERARAEVGRAAQLLDVSLFELSELREGLARLAEAAP
# B6: FUCA2 (protein, UniProt Q9BTY2 29-467, looked up)
# Plasma alpha-L-fucosidase: HSATRFDPTWESLDARQLPAWFDQAKFGIFIHWGVFSVPSFGSEWFWWYWQKEKIPKYVEFMKDNYPPSFKYEDFGPLFTAKFFNANQWADIFQASGAKYIVLTSKHHEGFTLWGSEYSWNWNAIDEGPKRDIVKELEVAIRNRTDLRFGLYYSLFEWFHPLFLEDESSSFHKRQFPVSKTLPELYELVNNYQPEVLWSDGDGGAPDQYWNSTGFLAWLYNESPVRGTVVTNDRWGAGSICKHGGFYTCSDRYNPGHLLPHKWENCMTIDKLSWGYRREAGISDYLTIEELVKQLVETVSCGGNLLMNIGPTLDGTISVVFEERLRQMGSWLKVNGEAIYETHTWRSQNDTVTPDVWYTSKPKEKLVYAIFLKWPTSGQLFLGHPKAILGATEVKLLGHGQPLNWISLEQNGIMVELPQLTIHQMPCKWGWALALTNVI
# B7: FIGNL1 (protein, UniProt Q6PIW4 1-674, looked up)
# Fidgetin-like protein 1: MQTSSSRSVHLSEWQKNYFAITSGICTGPKADAYRAQILRIQYAWANSEISQVCATKLFKKYAEKYSAIIDSDNVESGLNNYAENILTLAGSQQTDSDKWQSGLSINNVFKMSSVQKMMQAGKKFKDSLLEPALASVVIHKEATVFDLPKFSVCGSSQESDSLPNSAHDRDRTQDFPESNRLKLLQNAQPPMVTNTARTCPTFSAPVGESATAKFHVTPLFGNVKKENHSSAKENIGLNVFLSNQSCFPAACENPQRKSFYGSGTIDALSNPILNKACSKTEDNGPKEDSSLPTFKTAKEQLWVDQQKKYHQPQRASGSSYGGVKKSLGASRSRGILGKFVPPIPKQDGGEQNGGMQCKPYGAGPTEPAHPVDERLKNLEPKMIELIMNEIMDHGPPVNWEDIAGVEFAKATIKEIVVWPMLRPDIFTGLRGPPKGILLFGPPGTGKTLIGKCIASQSGATFFSISASSLTSKWVGEGEKMVRALFAVARCQQPAVIFIDEIDSLLSQRGDGEHESSRRIKTEFLVQLDGATTSSEDRILVVGATNRPQEIDEAARRRLVKRLYIPLPEASARKQIVINLMSKEQCCLSEEEIEQIVQQSDAFSGADMTQLCREASLGPIRSLQTADIATITPDQVRPIAYIDFENAFRTVRPSVSPKDLELYENWNKTFGCGK
# Target: T1, HCV proteins (Hepatitis C virus genotype 1b, UniProt Q9WMX2)
# T1 construct: expressed in transfected cells
# Experiment: Validation by Y2H pairwise matrices;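 note: yeast two-hybrid pairwise tests of interactions first found in Y2H screens of HCV bait proteins against human cDNA libraries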
# Type: binding
# Conditions: validation of interaction with HCV protein NS3
# 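Throughout, for IMAP Y2H IMAP1 (number of IST): yeast two-hybrid screens using HCV genotype 1b proteins fused to Gal4-DB as baits against prey cDNA libraries from human spleen and foetal brain, IMAP1 via transformation and IMAP2 via mating.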
# 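Throughout, for IMAP Y2H IMAP2 (number of IST): yeast two-hybrid screens using HCV genotype 1b proteins fused to Gal4-DB as baits against prey cDNA libraries from human spleen and foetal brain, IMAP1 via transformation and IMAP2 via mating.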
# 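Throughout, for Interaction with viral protein: yeast two-hybrid screens using HCV genotype 1b proteins fused to Gal4-DB as baits against prey cDNA libraries from human spleen and foetal brain, IMAP1 via transformation and IMAP2 via mating.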
# T1 sequence (Q9WMX2 1027-1657): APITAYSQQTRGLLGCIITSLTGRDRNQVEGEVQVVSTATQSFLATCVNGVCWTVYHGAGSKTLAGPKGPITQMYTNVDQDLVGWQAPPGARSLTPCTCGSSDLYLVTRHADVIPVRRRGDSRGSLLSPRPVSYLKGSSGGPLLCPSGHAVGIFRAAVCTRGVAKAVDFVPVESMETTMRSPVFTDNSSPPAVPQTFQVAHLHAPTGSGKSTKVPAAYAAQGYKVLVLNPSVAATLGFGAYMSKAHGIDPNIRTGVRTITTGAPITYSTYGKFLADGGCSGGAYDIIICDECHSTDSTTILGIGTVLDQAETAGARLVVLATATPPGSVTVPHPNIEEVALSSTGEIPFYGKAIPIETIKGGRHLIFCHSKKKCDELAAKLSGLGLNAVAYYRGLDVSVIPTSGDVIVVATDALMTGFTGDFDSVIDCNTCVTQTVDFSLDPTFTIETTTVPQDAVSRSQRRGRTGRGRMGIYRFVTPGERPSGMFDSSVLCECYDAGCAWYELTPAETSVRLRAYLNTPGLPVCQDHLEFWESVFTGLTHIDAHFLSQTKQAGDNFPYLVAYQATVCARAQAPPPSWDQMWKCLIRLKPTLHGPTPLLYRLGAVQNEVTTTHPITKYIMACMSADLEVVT
row,Molecule,Y2H matrices
1,B1,+
2,B2,+
3,B3,+
4,B4,+
5,B5,+
6,B6,+
7,B7,+

# Target: T2, HCV ORFs (Gal4-DB fusions) (Hepatitis C virus genotype 1b, UniProt Q9WMX2)
# T2 construct: expressed in transfected cells; host or cells: Saccharomyces cerevisiae MAV203 (IMAP1) / AH109 (IMAP2)
# Experiment: not given
# Type: binding, HCV genotype 1b, isolate con1
# Conditions: HCV protein NS3 as bait; human protein as prey
# T2 sequence (Q9WMX2 1027-1657): as above
Molecule,IMAP Y2H IMAP1 (number of IST),IMAP Y2H IMAP2 (number of IST)
B1,1,
B2,1,
B3,8,
B4,1,
B5,4,1
B6,2,
B7,1,

# System: HCV ORFs (Gal4-DB fusions)
# Experiment: not given
# Type: binding, HCV genotype 1b, isolate con1
# Conditions: human protein listed by gene symbol; the value names the HCV protein it interacts with
row,Molecule,Interaction with viral protein
1,B1,NS3
2,B2,NS3
3,B3,NS3
4,B4,NS3
5,B5,NS3
6,B6,NS3
7,B7,NS3
